This series has as its system MS2 coat protein. The series can be described thus: apparent KD of MS2 coat protein; higher = weaker reporter binding. The following applies: Eterna round: R107. As to the method: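 RNA-MaP round R107: designed RNA switches with theophylline, tryptophan, arginine or FMN aptamers are transcribed on-chip within common flanks. They are titrated with SNAP-549-labelled MS2 coat protein in RNA-MaP buffer (100 mM Tris pH 7.5, 80 mM KCl, 4 mM MgCl2), without ligand or with the indicated ligand. Median apparent KD per design.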

The mark [1] stands for this setting: input ligand: theophylline 20 uM.
Setting [2] is: input ligand: tryptophan 2.4 mM.
Setting [3] is: input ligand: theophylline 2 mM.

The values that follow come from the supplement of paper PMC9170038.

Regarding “ACGAACGAUAGUGAUACCAGACGUACAUGAGGAUCACCCAUGUUUUGGGUAAGGUUAAUAGUCCCUUGGCAGCACUUUAAGUUCG [JR_ExcTheophyB_Sub007]”, the “apparent KD of MS2 coat protein” value (input ligand: arginine 13.2 mM) stood at 44.6 nM, the “apparent KD of MS2 coat protein” value under setting [1] is 80.8 nM and the “apparent KD of MS2 coat protein” value under setting [2] was determined as 50.9 nM.

Consider “GGUGGCGUGACGGAUACCAGCCACCGCCGCAAGGCAACAUGAGGAUCACCCAUGUUGGGUGGCCCUUGGCAGCUGUCGUGCGGCG [#1 Same State - Theophylline B Attempt #22 (HarryS)]”, for which the “apparent KD of MS2 coat protein” value amounted to 13.3 nM (input ligand: arginine 13.2 mM); 195 nM (input ligand: none); 151 nM under setting [1]; 159 nM under setting [3]; 50.2 nM under setting [2].

With “GAGGAAACUCACAUGAGGAUCACCCAUGUACGAGGACCGGUACGGCCGCCACUCGAAACCAUGGGCGGUAGUACGUGGAAGCUUG [Design 2 MOD 2]”, the “apparent KD of MS2 coat protein” value (input ligand: arginine 13.2 mM) came to 21.1 nM, the “apparent KD of MS2 coat protein” value under setting [1] is 31.3 nM and the “apparent KD of MS2 coat protein” value under setting [3] is 23.8 nM.

Consider “GGUUACUCUACGGCCGCCACUGAUUAUUUAUAGUCCUGUACAUAAACAUGAGGAUCACCCAUGUACAGGACCGGGUAGUGUAACC [Tryptophan B 12]”, for which the “apparent KD of MS2 coat protein” value was 28.5 nM (input ligand: arginine 13.2 mM), 53.9 nM under setting [1] and 40.6 nM under setting [3].

“UGUGUGUGACCAGGAAAUGGUCACACACAGCGAGGACCGGUACGGCCGCCACUCGGCCGUACAUGAGGAUCACCCAUGUCGGGUA [#1 Same State - Tryptophan A Attempt #9 (HarryS)]”: the “apparent KD of MS2 coat protein” value turned out to be 99.6 nM (input ligand: arginine 13.2 mM), 961 nM under setting [1] and 1290 nM under setting [3].

In the case of “ACAUGAGGAUCACCCAUGUACAUGAGGGAAGGAGCGGUACAUGUGCCAGGUAGGUCGCCCAUGAGCAUCAGCCAUGUACAUCAGC [l,ommullin]”, the “apparent KD of MS2 coat protein” value worked out at 42.1 nM (input ligand: arginine 13.2 mM); 82.7 nM (input ligand: none); 102 nM under setting [1]; 75.3 nM under setting [3]; 75 nM under setting [2].

Regarding “AUUAUCAUGGUCAUAUAUAUUUCGUCAGAUACCAGACUAGAUAUAGUCCCUUGGCAGCUGUUACAUGAGGAUCACCCAUGUUAUA [JR_ExcTheophyA_Sub016]”, the “apparent KD of MS2 coat protein” value (input ligand: arginine 13.2 mM) amounted to 55 nM, the “apparent KD of MS2 coat protein” value under setting [1] is 76.8 nM and the “apparent KD of MS2 coat protein” value under setting [2] amounted to 93.3 nM.

Turning to “AGAGUCUAGUCGGCCGCCACUCAUGUCCAAUGGACAUGAGGAUCACCCAUGUACCAAAGGUACAUGAGGACCGGGACUGGACUCA [Omei Tryp B SS C v4]”, the “apparent KD of MS2 coat protein” value was 27.2 nM (input ligand: arginine 13.2 mM), 209 nM under setting [1] and 83.3 nM under setting [3].

In the case of “UGUAUGUGAUCUGAUACCAGAGUGAAUAAACCUGAGGAUCACCCUGGUAGGCGAAAGCCACUCCCUUGGCAGCAGAUCGCAUACU”, the “apparent KD of MS2 coat protein” value was found to be 102 nM (input ligand: arginine 13.2 mM); 139 nM (input ligand: none); 112 nM under setting [1]; 38.6 nM under setting [3]; 141 nM under setting [2].

On to “AAUAUUUGCCACAUGAGGAUCACCCAUGUGCGAGGACCGGUACGGCCGCCACUCGGUCGGUGGUUAAUGAAGAUAAACAAUAAUG [XTryp A #11]”, for which the “apparent KD of MS2 coat protein” value runs as follows: (input ligand: arginine 13.2 mM) 7.7 nM; (input ligand: none) 12 nM; under setting [1], 15.7 nM; under setting [3], 11.5 nM; under setting [2], 11.2 nM.

As to “GCUUGGGUGGCCCAGCCCUGGCAGGGCGAUACCAGCACGGUAACGUGCCCUUGGCAGCGCACAUGAGGAUCACCCAUGUGGUGCG [#1 Exclusion - Theophylline A Attempt #27 (HarryS)]”, the “apparent KD of MS2 coat protein” value stood at 52.8 nM (input ligand: arginine 13.2 mM), 161 nM under setting [1] and 112 nM under setting [2].

On to “AUAUAUACAUGAGGAUCACCCAUGUUAUUUCGAGGACCGGUACGGCCGCCACUCGAUAGAGUAGAAGUAAAUUUUGUUACAUGUA [JR_SSTryptoA_Sub010]”, for which the “apparent KD of MS2 coat protein” value was 10.4 nM (input ligand: arginine 13.2 mM), 13.7 nM under setting [1] and 10.8 nM under setting [3].

Regarding “CGUCGAAACUGAAGGAGCGAGAUGACAACAUUGGGUCUAACAUGAGGAUCACCCAUGUAAUCUCAGGUAGGUCGCGGUGUCAACA [Exclusion Arginine B GF18]”, the “apparent KD of MS2 coat protein” value is, setting by setting: (input ligand: arginine 13.2 mM) 53.7 nM; (input ligand: none) 64.6 nM; under setting [1], 86.3 nM; under setting [3], 120 nM; under setting [2], 63.9 nM.

Turning to “UCGUUGAAGUCGGCCGCCACUGAACUCAUGUUCAACAUGAGGAUCACCCAUGUACCUUAUUUUAACAGGACCGGGACUUUGACGA [JR_ExcTryptoB_Sub002]”, the “apparent KD of MS2 coat protein” value by setting is: (input ligand: arginine 13.2 mM) 113 nM; under setting [1], 229 nM; under setting [3], 164 nM.

Consider “UAAUAGAUUACGGCCGCCACUGAAGUGGACUUUAUGAGCAGGAUUCACAUGAGGAUCACCCAUGUCAGGACCGGGUACGUCCAUA [theeternabot_exclusion_MS2_Trp_B_33]”, for which the “apparent KD of MS2 coat protein” value is, setting by setting: (input ligand: arginine 13.2 mM) 25.6 nM; under setting [1], 44 nM; under setting [3], 44.3 nM.

Take “UAUCCACAUGAGGAUCACCCAUGUUAGGAAGGAGCGGUGAAUGCACCAGGUAGGUCGCCUAGCUGAGGACUGUCGGUGGAUUCGU [Exclusion - Arginine A (Freestyle 19)]”: the “apparent KD of MS2 coat protein” value reads like this: (input ligand: arginine 13.2 mM) 33 nM; (input ligand: none) 39.4 nM; under setting [1], 47 nM; under setting [3], 53 nM; under setting [2], 40.3 nM.

Regarding “CCAUAGGGUAAAUACGUAAUCAUAUCUGAAGGAGCGUGGAUAUACACAGGUAGGUCGCAGAAUCACAUGAGGAUCACCCAUGUCU [Same State Arginine A GF12]”, the “apparent KD of MS2 coat protein” value reads like this: (input ligand: arginine 13.2 mM) 28.8 nM; (input ligand: none) 41.2 nM; under setting [1], 39.8 nM; under setting [3], 47.5 nM; under setting [2], 42.7 nM.
